assay: yeast display, Sf9 membrane polyspecificity reagent, FACS + sequencing; frameworks hold sequencing errors
Method in brief: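 Synthetic nanobody libraries on Saccharomyces cerevisiae BJ5465 were galactose-induced for 36–48 hours, stained 1 hour at 4 °C with 10% biotinylated, detergent-solubilized Sf9 membrane reagent and enriched on streptavidin microbeads. FACS then separated cells into low and high (top ~1%) gates by anti-HA (expression) and streptavidin (reagent binding) fluorescence. Genes were colony-PCR amplified, MiSeq 2 × 250 sequenced and CDR-length filtered. A clone's polyreactivity label is that of its gate of origin.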

| Sequence | polyreactivity (PSR sort gate) |
| --- | --- |
| QVQLVESGRGLVQAGGSLRLSCAASGFTFYRYAMGWYRQAPGKERELVAAISWSGGSTYYADSVKGRFTISRDNAKNTVYLQMNSLKPEDTAVYYCAANRRFVGTGSTYYYWGQGTHVTVSS | high polyreactivity |
| QVQLVESGRGLVQAGGSLRLSCAASGGSIPYYAMGWYRQAPGKERELVAAINYSGGSTYYADSVKGRFTISRDNAKNSVYLQMNSLKPEDTAVDYCAARHRYHRGYGYWGQGTQVTLSS | high polyreactivity |
| QVQLVESGRGLVQAGGSLRLSCAASGGTFRTYAMAWYRQAPGKERELVAAISVSGGRTYYADSVKGRFTISRDNAKNTVYLQMNSLKPEDTAVYYCAAYWHGFFKYWEMGYWGQGTQVTVSS | high polyreactivity |
| QVQLVESGRGLVQAGGSLRLSCAASGIFTRYAMGWYRQAPGKERELVAAISRGGGSTYYADSVKGSFTISRDNAKNTVYLQMNSLKPEDTAVYYCAADNSPRPYDYWGQGTQVTVSS | high polyreactivity |
| QVQLVESGRGLVQAGGSLRLSCAASGIIFTRYAMGWYRQAPGKERDLVAGISYSGSSTYYADSVKGRFTISRDNAKNTVYLQMNSLKPEDTAVYYCAAEFVTYYSSSKRAYYYWGQGTQVTVSS | high polyreactivity |
| QVQLVESGRGLVQAGGSLRLSCAASGLNFYDNMGWYRQAPGKERDLVAAISSSGGSTSYADSVKGRFTISRDNAKNTVYLQMNSLNPEDTAVYYCAAEWYPYPWGYGYWGQGTQVTVSS | low polyreactivity |
| QVQLVESGRGLVQAGGSLRLSCAASGLTFTPYAMGWYRQAPGKERELVAAITSGGRTYYADSVKGRFTSSRDNAKNTVYLQMNSLKPEDTAVYYCNADPEYSWWYYGLDYWGQGTQVTVSW | high polyreactivity |
| QVQLVESGRGLVQAGGSLRLSCAASGRIFDHYAMGWYRQAPGKERELVAAITWSGANTYYADSVKGRFTISRDNAKNTVYLQMNSLKPEDTAVYYCAAYNGAHSHFGYWGQGTQVTVSS | low polyreactivity |
| QVQLVESGRGLVQAGGSLRLSCAASGRIFGVYAMGWDRQAPGKERELVAAISGSTTRTYYADSVKGRFTISRDTAKNTVYLQMNSLKPEDTAVYYCAARSYTPSYKMDYWGQGTQVTVSS | high polyreactivity |
| QVQLVESGRGLVQAGGSLRLSCAASGRIFKAYAMGWYRQATGKERELVAAITRGGRTKYADSVKGRFTISRDNAKNTVYLQMNSLKPEDTAVYYCAAELPGGYLVDYDYWGHGTQVTVSS | high polyreactivity |
| QVQLVESGRGLVQAGGSLRLSCAASGRIGKYAMGWYRQAPGKERELVATISSTGTTNYADSVKGRFTISRDNAKNTVYLQMNSLKPDDTAVYYCAAVRHKEYDYWGQGTQVTVSS | high polyreactivity |
| QVQLVESGRGLVQAGGSLRLSCAASGRISVFNAMGWYRQAPGKERELVAAISWSGGSTYYADSVKGRFTISRDNAKNTVYLQMNSLKPEDTAVYYCAARGHYQYYWGQGTQVTVSS | low polyreactivity |
| QVQLVESGRGLVQAGGSLRLSCAASGRTFDFNAMGWYRQAPGKERELVAAISSDSDTYYADSVKGRFTISRDNAKNTVFLQMNSLKPEDTAVYYCAAEHQYPYGWYYYWGQGTQVTVSS | high polyreactivity |
| QVQLVESGRGLVQAGGSLRLSCAASGRTFYGYARGCYRQAPGKERELVARISSGGGTYYADSVKGRFIISRDNAKYTVYLQMNSLKPEDTAVYYCNAEVYRWSGSYTGWDSWHDDWGQGTQVTVSS | low polyreactivity |
| QVQLVESGRGLVQAGGSLRLSCAASGRTFYYYTMGWYRQAPGKERELVAAISYSGGSTSYADSVKGRFTISRYNAKNTVYLQMNRLKPEDTAVYYCNAPYKYYTQRRYHYDYCGQGTQVTVSS | high polyreactivity |
| QVQLVESGRGLVQAGGSLRLSCAASGRTLSQYAMGWYRQAPGKERELVAAITRSGGSTYYADSVTGRFTISRDISKNTVYLQMNSLKRDDTAVYYCNITLYTTYDYWGQGTQVTVSS | low polyreactivity |
| QVQLVESGRGLVQAGGSLRLSCAASGRTVTNNVLGWYRQAPGKEREFVASISSGGGSTYYADSVKGRFTISRDNANNTVYVQMNSLKPEDTAVYYCAAGYWWRYALYGYWGQGTQVTVSS | low polyreactivity |
| QVQLVESGRGLVQAGGSLRLSCAASGSIFKYYAMGWYRQAPGKERELVAAITSGGSTSYADSVKGRFTISRDNAKNTVYLQMNSLKPEDTAVYYCAAELRSWRSYGSVWRWYYYWGQGTQVTVSS | high polyreactivity |
| QVQLVESGRGLVQAGGSLRLSCAASGSIFPTYALGCYRQAPGKERELVAAISSGENTYYADSVKGRFTISRDNAKNTVSLQMNSLKPEDTAVYFCAAADNYGIRDLYASDGTQNYYWGQGTQVTVSS | low polyreactivity |
| QVQLVESGRGLVQAGGSLRLSCAASGSIFYDNAMGWYRQAPGKDRELVAAISYSGDSTYYADSVKGRFTISHDNAKNTVYLQMNSLKPEDTAVYYCAADYYGIYYSGTSEYWGQGTQVTVSS | low polyreactivity |
| QVQLVESGRGLVQAGGSLRLSCAASGSTFNINAMGWYRQAPGKERELVAAISWSGDITYYADSVKGRFTISRDNAKNTVYLQMNSLKPEDTAVYYCNTDDPGNYWYAEYDYWGQGTQVTVSS | low polyreactivity |

| Sequence | polyreactivity (PSR sort gate) |
| --- | --- |
| QVQLVESGRGLVQAGGSLRLSCAASGSTFVANDMGWYSQAPGKERELVAAISWSDATTYYADSVKGRGTISRDNAKNTVYLQMNSRKPEDNAVYDCAATRDTNNMDYWGHGTQVTVSS | low polyreactivity |
| QVQLVESGRGLVQAGGSLRLSCAASGVTFNVYAMGWYREAPGKVRELVAAISYNGGRTYYADSVKGRFTISRDNAKNTVYLQINSLKPEDTAVFYCAALYYFTPSDGRRYDYWGQCTQVTVSS | high polyreactivity |
| QVQLVESGRGLVQAGGSLRLSCAPSGFTFHNNVMGWYRQAPGKERELVATISKSGGSTYYADSVKGRFTISRDNAKNTVYLQMNSLKPEDTAVYYCARRYRDYGRYGYWGQGTQVTVSS | high polyreactivity |
| QVQLVESGRGLVQAGGSLRLSCAPSGLNFVRYAMGWYRQAPGKERELVARITSRGTSTYYADSVKGRFTISRDNAKNTVYLQMNSLKPEDTAVYYCIKFRSFRDKTRYDYWGQGTQVTVSS | low polyreactivity |
| QVQLVESGRGLVQAGGSLRLSCASSGRIFTYTAMGWYRQAPWKDSELVARITSGGNTNYADSVKGRFTISRDNAKNTVYLPMNSLKPEDTAVYYSATGLYWFTNRYGCWGLGTQVTVSS | low polyreactivity |
| QVQLVESGRGLVQAGVSLRISCAPSGRIFSGYAMGWYRQAPGKERELVAAITSSSGSTYYADSVKWRFTISRDNAKNTFYLQMISLKPEDTAVYYCAAEYVRLYWYTSDYWGQGTEVTVSS | low polyreactivity |
| QVQLVESGRRLVQAGGSLRLSCAASGLTLYKNGMGWYRKAPGQVRELVAVISRSGGRTYYADSVKGRFTISRDNAKNTVYVQMNSLKPEDTAVYYCAARQYGPRYTYYYWGQGTQVTVSS | high polyreactivity |
| QVQLVESGVCIVQAGGSLRLSGADSGNTLIQYAMRWYRQPHGKERELVAGISGSDDSTYYADSVKGRFTISRDNAKNTVYLQMNSLKPEDTAVYYCAALSISPSRTGYYWGQGTQVTVSS | low polyreactivity |
| QVQLVESGVCLVQAGGSLRLICAASGNTFYRYAMGWYRQAPGKERELVAAITGRGGSTYYADSVKGRFTISRDNAKNTVYLQMNSQKPEDTAVYYCAAESYGYGNDYWGQGTQVTVSS | low polyreactivity |
| QVQLVESGVCLVQAGGSLRLSCAASGFTFKWYAMGWYRQAPGKERELVATITIGGRTNYADSVKGRFTISRDNAKNTVYLQMNSLKPEETAVYYCATYFVGFRLSDYDYWGQGTQVTVSS | low polyreactivity |
| QVQLVESGVCLVQAGGSLRLSCAASGSTYTYAMGWYRQAPGKERELVADITQSGGSTYYADSVKGRFTISRDNAKKTVYLQMNTLKPEDTAVYYCNAESRHVFEDEYWGQGTQVTVSS | low polyreactivity |
| QVQLVESGVCLVQAGGSLRLSCAATGFTIKYYAMGWYRQPPGKEMELVAAISWTGANTYYADSVKGRFTISRDNAKNTVYLQMNSLKPDYTAVYYCAAGYLIGHSVRTTVRTIYEYWGQGTQVTVSS | high polyreactivity |
| QVQLVESGVGLDQAGGSLRLSCAASGGIIAINAMGWYSQAPGKERELVAAISWGDGMTYYADSVKGRFTISRDNAKNTVYLQMNSLKPDDSAVYYCAADADEYRGGDVSWGQGTQVTVSS | low polyreactivity |
| QVQLVESGVGLLQEGGSLSLSCAASGRTFRWYGMGWYSQAPGKEREFVAAISFRGGTTYYADSVKGRFTISRDNAKNTVYLQMNSLKPEDTAVYYCAARSGYYTSDYKYYYWGQGTQVTVSS | high polyreactivity |
| QVQLVESGVGLVKAGGSLRLSCAASGFTIRPYAMGWYRQAPGKERELVAAITSGDSTNYADSVKGRFTISRDNAKNTVYLQMNSLKPEDTAVYYCAVDGGEFTSYGYWGQGTQVTVSS | low polyreactivity |
| QVQLVESGVGLVKAGGTLRLSCAASGGIFDYNAMGWYRQAPGKERELVAYYADSVKGRFTLSRDNAKNTVYLQMNSLKPEDTAVYYCAVDGGEFSSYGYWGQGTQVTVSS | low polyreactivity |
| QVQLVESGVGLVNAGGSLRLSCAASGYIFSPNVMGWYRQAPGKERELVAAITRGGGTYYADSVKGRFTISRDNAKNTVYLHLNSLKPEDTAVYYCNEDYTLSVYGTTYCYNYWGQGTQVTVSS | high polyreactivity |
| QVQLVESGVGLVQAAGSLRLSCAASGRIFYHYTMGWYRQAPGKERELVAAITSGGSTYYADSVKGRFTISRDNAKNTVYLQMNSLKPEDTAVYYCAAEGYTYYPVYSTRMYYWGQGTQVTVSS | low polyreactivity |
| QVQLVESGVGLVQAGGSIRLSCAASGRTFRYYTMGWYRQAPGKEREFVAAISSTGGTYYADSVKGRFTISRDNAKNTVYLQMNSLKPEDTAVYYCAATFIQVVVNVQLYDYDYWGQGTQVSVSS | low polyreactivity |
| QVQLVESGVGLVQAGGSLRLCCAASGSTSKYYAMVWYRQSPGKERELVAAITWSDVSTYYADSVKGRFTISRDNAKNTVYLQMNSLKPADTAVYYCNAGYDYWGQGTQVTVSS | low polyreactivity |
